The values that follow are results of earlier work, collected in article PMC3883350.

The Kd is a measure of binding affinity in units of concentration.

Where two headings read alike, the source gives them in different places. Bounds are passed on as bounds.

The target in data set [1] is PACAP (Homo sapiens) (UniProt P18509).
In data set [2] the target is VIP (Homo sapiens) (UniProt P01282).
Data set [3] deals with PACAP (Homo sapiens) (UniProt P18509). This is another data set of the same source.
The target of data set [4] is VIP (Homo sapiens) (UniProt P01282). This is another data set of the same source.
For data set [5], the target named is PACAP (Homo sapiens) (UniProt P18509). The source holds these as a separate data set.
Data set [6] addresses VIP (Homo sapiens) (UniProt P01282). The source holds these as a separate data set.

Sequence of UniProt P18509 (P18509 82-129): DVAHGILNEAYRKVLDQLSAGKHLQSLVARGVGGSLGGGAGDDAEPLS
Sequence of UniProt P01282 (P01282 125-152): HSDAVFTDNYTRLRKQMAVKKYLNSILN

As to VPAC2 (from UniProt P41587), the Kd in the data set with PACAP (Homo sapiens) [1] and with VIP (Homo sapiens) [2] was 1 nM throughout.
Consider VPAC1 (from UniProt P32241), for which the Kd with PACAP (Homo sapiens) [3] and in the data set with VIP (Homo sapiens) [4] was 1 nM each time.
As for PAC1 (from UniProt P41586), the figures for the Kd with PACAP (Homo sapiens) [5] and with VIP (Homo sapiens) [6] were 0.5 nM and more than 500 nM, respectively.
